Laboratory results reported in paper doi:10.64898/2025.12.11.693838 (bioRxiv, 2025).

B1: N-terminal β-flap deletion mutant of SaTpx (NΔ15-SaTpx) (domain or fragment, UniProt Q2FXL3 16-164, looked up)
chain: QQINEGDFAPDFTVLDNDLNQVTLADYAGKKKLISVVPSIDTGVCDQQTRKFNSDASKEEGIVLTISADLPFAQKRWCASAGLDNVITLSDHRDLSFGENYGVVMEELRLLARAVFVLDADNKVVYKEIVSEGTDFPDFDAALAAYKNI
B2: Staphylococcal atypical 2-Cys peroxiredoxin / thiol peroxidase, wild type (WT-SaTpx) (enzyme, UniProt Q2FXL3 1-164, looked up)
chain: MTEITFKGGPIHLKGQQINEGDFAPDFTVLDNDLNQVTLADYAGKKKLISVVPSIDTGVCDQQTRKFNSDASKEEGIVLTISADLPFAQKRWCASAGLDNVITLSDHRDLSFGENYGVVMEELRLLARAVFVLDADNKVVYKEIVSEGTDFPDFDAALAAYKNI

Biological target: the molecule itself
Assay: crystal structure

Row | Protein | stoichiometry N
1 | B1 | 2
2 | B2 | 2
